Source: the DeepSol protein solubility set

Experiment: soluble on expression in E. coli; label from the status in PepcDB or PDB records

Row | Sequence | soluble on expression in E. coli
1 | FRGFRYNAGVYFDRSRNKLTEFGAEEIGSYSIKREGLPYDEYYMLECIGVFADQAEINASPKQFNDNTQPGDLKYKDISGPDGKPDGVIDNYDRRTFSGRFPGFEYGINASATWKGFDLSLIGQGVADKKYYTTDWGVQPFMQGSSPNKDYIKHMWTEENPYGAKHPKLYWQDMGGGKNTRPNSYYLKDASFFRLKNLTLGYTLPRVWTEKANISKVRIYFSGDNLLTLTPYKGLDPERNGDGRDAIYPQNRIYSFGLNVEF | not soluble
2 | MGSDKIHHHHHHMTPIRLIIVGLGARALTWIKVARANPDVEIVALCDPDPSARSAAARQFPKLPIGKDITDIIGTAADAVLLATPPRGREAQIEACCTHGLAVLAEKPLSDSVVTAARFVEMAEQAGVPLIVGLNFRYLAVTQEKRRLLADGAIGTPEFGRFIYERWRDGTQDWLNSYPLTMDHPMLWEQSIHHFDLMRYVHGVEPEYVQAHTANPSWTMYEGDTNVSALIGFKGGFHITYQGTWQSGHEPMNFNWRTDGSEGIVVQRAMFGDLAWAKRMEPELTPVDLPAHEAWITDAAALLDRFVAILRGATPECTGRDHLQSLFMLEACILASARRATVTIDEVRALTTPKETS | not soluble
3 | MSEKLRRCRKELTAAIDRAFEGVRHSQECTAQQRLDAPSLTSQPVHRLLCRNPLAACPSAAPYSGASCAPESENPAFGTHHIPVNSKLQQPLYPKRKPLTSKENVLMQSSILARDRQFWRAAGDGEDWRKDSLRKDMERDLKADPNVLLSSSSQEVTKDLLDMIDHTSIRTIEELAGKLEFENELNRVCGHCQDSPFKEEAWALLVDESPQKALDADPGSLKQALDDQNIVETVLDLEEDYNLMTSFKYQIE | soluble
4 | MAHHHHHHMSSVKITLFQGKFRLDRLLGKGGFGEVYAGVQVSTGEPVAVKLERNKGRCFLFHEARVMQDIQNSMPGRTTPGIPELKYFGQEGDFRILIMSLLGPSLEDLHAKLGRFSLKTTVMLADEMLSRLEFIHSVGYIHRDLKPDNYLLGVGRNVRHLYLIDLGLSVRYRSTNGEHREMATGKSFVGTSRYASLRTHKGFSQSRRDDMEQLSYILIYLYRGHLPWSGLRMKDREAKEKAIGEIKQKLTTAQICSKCPSQFEDLLNYSRKLEFAESPQYEMCRILIASVLDTIGPNVKHDFQYDWVNVRKRDNSPPPPPPCIVTHERRATENKINLKKGNENGEKDAATIGSKIFCFFPGLSSSASQEMVLVNEK | not soluble
5 | MGHHHHHHSHMIALKMFYTEETYEQFFDYGLDYVIDASDTICYKIHLMKECLKRDIPLISSMGAANKTDPTRFQIADISKTHTDPIAKVVRTKLRKEGIKKGVQVIFSDESPIVIREDVRKEVGNDEAKIRKAKMPPSSNAFVPSVAGLIMGGHVVMDLLKDIEIKRVKDK | soluble
6 | MGSDKIHHHHHHMSESKIDNRLWSSKARNLSPYVPGEQPQHDDLCKLNTNENPFPPSPKVGEAITKVLAQQADDLRLYPAPESEELRGALAALYNLDINQVFVGNGSDEVLALVFASFFLKNRPVLAPDISYSFYPVYANTFGIELVQIPLEADFSISPDAYRRPCSGIIIANPNAPTGLLLSLADIRKLAGEHSDSVIVIDEAYIDFAQLEEASAESQMSAISLINEFDNLLVTQTFSKSRSLAGLRVGMAFGNASLIEALTRMKNSFNSYPLDKLAQAGATASVLDVEYFEQTCQQVIDLRTSLTAELTALGYDVLPSHANFVFARPHDGAASQVAEVLREQGIIVRHFDKPRINEYLRITIGTPSQHERLINALKALQAVADVEAS | not soluble
7 | MGSDKIHHHHHHMPEHLDFTLFQPKGRLASIVQGVWSTSVAIHSSNNIKRWLHSDACSGFLFNLSEPIQLNDLSISTGGVLLPVSKQAQTITLPPGAVVVGVRFHPAMSFAILGNIYQQATQIKKSETNILSLQTLGNQLEQAKGHYARIVVFYRWLNTMLLTIDNIPAPLMSALKALEDKKSPGELSNHVLLSQRQIERHFQKWLNMTPKYYQRISRVKNALKVLKLHPETALADLALSIGFTDQAHMTREFKYIARITPKHYAQKVIDDKSNALSIIKPKVG | not soluble
8 | MGLSPHVEALQVLQTALQTGEGFIKVTGEVGTGKTLICRKLINELPQGFHCAYLPNPYLTPAELRWAVANELGLKYTSEIDQQQLTGLIQQQLLALSTHGHAIVLVLDEAQALPDESLEALRLFTNLETESRKLLQVVLFGQPELDERLKRQAFRQLRQRITFSYNLRPLEHHHHHH | not soluble
9 | MHGSQKDTTFTKIFVGGLPYHTTDASLRKYFEGFGDIEEAVVITDRQTGKSRGYGFVTMADRAAAERACKDPNPIIDGRKANVNLAYLGAKPRSLQTGFAIGV | soluble
10 | MRGSHHHHHHGSDLGKKLLEAARAGQDDEVRILIANGADVNAVDNTGLTPLHLAAVSGHLEIVEVLLKHGADVDAADVYGFTPLHLAAMTGHLEIVEVLLKYGADVNAFDMTGSTPLHLAADEGHLEIVEVLLKYGADVNAQDKFGKTAFDISIDNGNEDLAKSCRN | soluble
11 | MGSDKIHHHHHHMRYNCLYLIFKESRFVKIAIVANTSWNIYNFRLNLIHFFLAHKYEVVCIAPVDRHTEALTTLPVTFVPVEIDSKGNNPIKDARLVGKFLSIYKKHKPDVILQYTIKPNIYGTLAAKLCGIPTINTVTGLGTVFLHDTCITRLAQQLYAFSFKFATVAVFQNEDDRDIFVQKRIITHAKTQIIKGSGVNTTHFIPAKTYSKAFAFLMVARLLYDKGIREYAQAAKCLHEQHGNNVQCLLIGAIDSDKQLGINKEDVHAWANRHHLIYKPFDTAILKEYQQANVVVLPSYREGLSKSLLEAGACGKPLIASNVSGCKEIVIDNWNGYLCEAKDAGNLFDKMNLMLETSPEQLAEMGKNSRDFIEQNFSDKIISNDYFYLIKRVTESKKTNTNDIH | not soluble
12 | MGSDKIHHHHHHMSARYLDPKKRHEFVFLFDVRDGNPNGDPDAGNLPRVDPETMHGLVTDVALKRKIRDYIALTREGKPRFAIFVQSRVALNRLILEGFQEAGIEPVSLQLAEEQMANESLLEHLDGLAEAGFSREGGTLYYSGQATTEKEIAKLLMGEEEAVAPFKKELEKLAKELAKAVKGRKITEEDRERAQAKLLERFFDIRMFGAVLSTGLNAGQVRGPVQLTFARSLDPIAPLEVSITRVAITREEDRARKETEMGRKPLVPYGLYRAHGFFNPFLAAKTGVQPEDLEALWDALQHLFELDRSAARGEMTVRGLAVFSHEDAKGNAPAHRLFGLIRVERREGVEAPRSFADYRVRAPKEGSLEAHGFPGVHLAWLVRPEGLEDLPPHVG | not soluble
13 | MPFIYRRRVQFYETDAQGIVHHSNYFRYFEEARGEFLRSKGFPYSKMRDMGLEVVLLNAYCEYKKPLFYDDVFEVHLNLEELSRFTFTFSYIVFKEDIAVAKANTKHCMVKNGKIVSIPKEVLEVLKD | soluble
14 | MLASARRALHPGHPPAIHRAMNSEIDPGRCPLCQQSNRCTLAYPTSATQACWCFTTEIDAAVLERIPAELRRRACLCPRCAQLLPPDADD | not soluble
15 | MAVKGLGEVDQKYDGSKLRIGILHARWNRKIIDALVAGAVKRLQEFGVKEENIIIETVPGSFELPYGSKLFVEKQKRLGKPLDAIIPIGVLIKGSTMHFEYICDSTTHQLMKLNFELGIPVIFGVLTCLTDEQAEARAGLIEGKMHNHGEDWGAAAVEMATKFN | soluble
16 | MLSNQQIRNFSRGVGHLRRRAAKNNVIKVRPEELRPFFNQYSVLPNGIQNDADAKLFSKELQPGERKLLFDALRKITADQYNDHKKVVEVTIDHEDLVKVWYINFIPMFVYGCLDEAFLIIGGESINK | not soluble
17 | DVGSAIDAAHQAFLRYQQCPLKTRSAIISALRETLAPELATLAEESATETGMGNKEDKYLKNKAALENTPGIEDLTTSALTGDGGMVLFEYSPFGVIGAVAPSTNPTETIINNSISMLAAGNSVYFSPHPGAKKVSLKLIARIEEIAYRCSGIRNLVVTVAEPTFEATQQMMSHPLIAVLAITGGPGIVAMGMKSGKKVIGAGAGNPPCIVDETADLVKAAEDIISG | not soluble
18 | MSQPCPCGSADEYSLCCGRIVSGERVAPDPSHLMRSRYCAFVMKDADYLIKSWHPTCNAAAFRDDIIAGFANTRWLGLTIFEHTWSEAENTGYVSFIARFSEQGKNGAIIERSRFIKENGQWYYIDGTRPQLGRNDPCPCGSGKKFKKCCGQ | not soluble
